Tests used:
[1] = in vivo; design: species or system Balb/c nude mice; conditions: male, Balb/c nude, mouse, iv, total radioactivity, Percentage of injected dose
From the text: (§1) Healthy male Balb/c nude mice (˜18 g) from 8 weeks old were obtained from the ARC and used for this study. Mice were imported into the CAI animal holding facility and monitored for 1 week prior to the study in order to acclimatize to the environment prior to injection of cells. All animals were provided with free access to food and water before and during the imaging experiments which were approved by the University of Queensland Animal Ethics Committee (Approval #AIBN/CAI/105/19/ARC/NHMRC).
(§2) 8-week-old male Balb/c nude mice were injected (27G needle) subcutaneously with PC3 ([…]) cells in 50 μL of 50:50 matrigel and cells in phosphate buffered saline into the right flank of each mouse. There was no evidence of ulceration at the time of dosing; the animals were closely monitored and remained in good condition apart from the growth of tumours. […] Labelled peptides were injected via the tail vein (29G needle; ˜2-3 MBq) and then mice were imaged using the Siemens Inveon PET-CT instrument at the various time points.
(§3) Organs were excised at 24 hours, with the percentage of injected dose of the administered compound determined by ex vivo gamma counting (Table 1, FIG. 5). Values are averages across 4 mice.

[2] = Stability of aqueous formulation (radiochemical purity over time); assay type: physicochemical; conditions: up to 48 hours post End of Synthesis, 3 validation batches
Description: Product stability was monitored up to 48 hours post End of Synthesis (EOS) for 3 validation batches of [^64Cu]Formula (Ib) in an aqueous formulation prepared as outlined above. Due to time restrictions, identical stability sampling time points were not always achievable. […] This is attributed to radioactive decay reducing the peak area of radiolytic impurities to below detectable limits, rather than a true increase in the radiochemical purity.

[3] = system: PC3 tumours; assay: in vivo; design: species or system Balb/c nude mice; conditions: mouse
From the text: as §1, §2, §3

| SMILES | tissue uptake at 24 h ([1]; Blood) | tissue uptake at 24 h ([1]; GI Tract) | tissue uptake at 24 h ([1]; Heart) | tissue uptake at 24 h ([1]; Kidneys) | tissue uptake at 24 h ([1]; Liver) | tissue uptake at 24 h ([1]; Lungs) | tissue uptake at 24 h ([1]; Pancreas) | tissue uptake at 24 h ([1]; Spleen) | tissue uptake at 24 h ([1]; Tail) | tissue uptake at 24 h ([1]; Tumour) | radiochemical purity (stability) [2] | Percentage of injected dose, Tail [3] |
| --- | --- | --- | --- | --- | --- | --- | --- | --- | --- | --- | --- | --- |
| CC(C)C[C@H](NC(=O)C[C@H](O)[C@H](CC(C)C)NC(=O)[C@H](Cc1c[nH]cn1)NC(=O)CNC(=O)[C@@H](NC(=O)[C@H](C)NC(=O)[C@H](Cc1c[nH]c2ccccc12)NC(=O)[C@H](CCC(N)=O)NC(=O)[C@@H](Cc1ccccc1)NC(=O)CCOCCOCCOCCOCCNC(=O)CCCC(=O)NC12CNCCNCC(C)(CNCCNC1)CNCCNC2)C(C)C)C(N)=O [[^64Cu]Formula (Ib), metal not drawn] | 0.13 ± 0.04 %ID/g | 0.3 ± 0.07 %ID/g | 0.24 ± 0.02 %ID/g | 3.55 ± 0.79 %ID/g | 1.52 ± 0.18 %ID/g | 0.31 ± 0.08 %ID/g | 0.23 ± 0.02 %ID/g | 0.38 ± 0.06 %ID/g | 0.56 ± 0.87 %ID/g | 4.09 ± 0.52 %ID/g | ≥ 92.4% | – |
| CC(C)C[C@H](NC(=O)C[C@H](O)[C@H](CC(C)C)NC(=O)[C@H](Cc1c[nH]cn1)NC(=O)CNC(=O)[C@@H](NC(=O)[C@H](C)NC(=O)[C@H](Cc1c[nH]c2ccccc12)NC(=O)[C@H](CCC(N)=O)NC(=O)[C@@H](Cc1ccccc1)NC(=O)CCOCCOCCOCCOCCNC(=O)CCCC(=O)NC12CNCCNCC(NC(=O)CCCC(=O)NCCOCCOCCOCCOCCC(=O)N[C@H](Cc3ccccc3)C(=O)N[C@@H](CCC(N)=O)C(=O)N[C@@H](Cc3c[nH]c4ccccc34)C(=O)N[C@@H](C)C(=O)N[C@H](C(=O)NCC(=O)N[C@@H](Cc3c[nH]cn3)C(=O)N[C@@H](CC(C)C)[C@@H](O)CC(=O)N[C@@H](CC(C)C)C(N)=O)C(C)C)(CNCCNC1)CNCCNC2)C(C)C)C(N)=O [[^64Cu]Formula (Ia), metal not drawn] | 0.1 ± 0.05 %ID/g | 0.44 ± 0.04 %ID/g | 0.21 ± 0.03 %ID/g | 6.81 ± 0.67 %ID/g | 16.8 ± 1.55 %ID/g | 0.36 ± 0.12 %ID/g | 0.84 ± 0.06 %ID/g | 1.47 ± 0.2 %ID/g | – | 2.13 ± 0.86 %ID/g | – | 0.28 0.05 % ID/g |
